Source: publication PMC9020658

Molecular target: UAF (Rrn5-Rrn9-Rrn10-Uaf30-H3-H4);TBP (TATA-box-binding protein) ((budding yeast);(budding yeast)) (UniProt Q02983+P53437+P38204+Q08747+P61830+P02309+P13393)
Experiment: cryo-EM 2.8 A
Conditions: 30 mM Hepes-NaOH pH 7.5, 30 mM sodium citrate pH 6.0, 250 mM KCl, 2 mM DTT; filter binding 1 h at 4 C; footprinting on ice, then 2.5 mM MgCl2, 0.5 mM CaCl2 …

**Q.** With “GAAAAAAAAAATATACGCTAAGATTTTTGGAGAATAGCTTAAATTGAAGTTTTTCTCGGCGAGAAATACGTAGTTAAGGCAGAGCGACAGAGAGGGCAAAAGAAAATAAAAGTAAGATTTTAGTTTGTAATGGGAGGGGGGGTTTAGTCAT (double strand) [35S rRNA promoter -190/-40 (cryo-EM DNA)]” as the sequence, how does the binding read?
**A.** The binding was “binds”.
